Laboratory results taken from PMC11756378, “Centriolar cap proteins CP110 and CPAP control slow elongation of microtubule plus ends” (The Journal of Cell Biology, 2025).

Experiments:
[1] = target: CEP97^CP110-GFP-SII (CEP97 residues 1–650 fused to CP110 residues 581–991) (human) (UniProt Q8IW35)
[2] = target: T1, CPAP-CC1 (residues 89–196) (human, UniProt Q9HC77 89-196); experiment: cross-linking; zero-length cross-linking with 60 mM DMTMM, 6 min, 25°C, then mass spectrometry (xQuest); conditions: both partners purified
T1 construct: Calculated mass of the monomer: 12.5 kDa; source: E. coli BL21(DE3), purified (Ni-NTA, tag cleaved with HRV 3C protease, SEC); not shown: thioredoxin, N-terminal, cleaved; His6, N-terminal, cleaved
T1 sequence (looked up): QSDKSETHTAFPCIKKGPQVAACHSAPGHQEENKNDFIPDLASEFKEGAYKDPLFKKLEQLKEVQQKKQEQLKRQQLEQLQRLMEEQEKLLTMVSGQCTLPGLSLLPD

[3] = target: the molecule itself; experiment: SEC-MALS; 20°C, Superdex S75 10/30 or S200 10/30, 20 mM HEPES pH 7.5, 150 mM NaCl, 2 mM DTT; 15 µl at ∼7 mg/ml; proteins alone or mixed equimolar (also 2:1 and 3:1); homodimer for CP110-CC2
[4] = target: the molecule itself; experiment: single-molecule fluorescence intensity (TIRF microscopy); single molecules immobilised on coverslips in MRB80; intensity compared with GFP (monomers) and GFP-EB3 (dimers)

Molecule: CPAP-NMUT-mCh (CPAP 1–607 L149A/K150A, GCN4 leucine zipper, mCherry, SII) (from UniProt Q9HC77 1-607)
- percentage of time CEP97^CP110-GFP was bound to MT plus ends, 20 nM CEP97^CP110-GFP with 50 nM CPAP-NMUT-mCh [1]: 26%

Molecule: CPAP-NWT-mCh (CPAP 1–607, GCN4 leucine zipper, mCherry, SII) (from UniProt Q9HC77 1-607)
- MT plus-end growth rate with 20 nM CEP97^CP110-GFP and 50 nM CPAP-NWT-mCh (TIRF reconstitution) [1]: 0.05 to 0.1 µm/min
- percentage of time CEP97^CP110 was present at MT plus ends, 20 nM CEP97^CP110-GFP with 50 nM CPAP-NWT-mCh [1]: 69%

B1: CP110-CC2 (residues 635–717) (domain or fragment, human, UniProt O43303-2 635-717, looked up)
chain: GTSSKESEELLKSKMLAFEEMRKRLEEQHAQQLSLLIAEQEREQERLQKEIEEQEKMLKEKKAMTAEASELDINNAVELEWRK
notes: CP110, human, residues 635-717 (coiled-coil domain CC2); Homodimer alone by SEC-MALS; one chain in the heterodimer with CPAP-CC1; Calculated mass of the monomer: 10.0 kDa; also called CP110 fragment 635–717; source: E. coli BL21(DE3), purified (Ni-NTA, tag cleaved with HRV 3C protease, SEC); not shown: thioredoxin, N-terminal, cleaved; His6, N-terminal, cleaved
- binding result [2]: binds
- stoichiometry N [3]: 2

B2: CEP97^CP110-GFP-SII (CEP97 residues 1–650 fused to CP110 residues 581–991) (other, human, UniProt Q8IW35 1-650, looked up)
chain: MAVARVDAALPPGEGSVVNWSGQGLQKLGPNLPCEADIHTLILDKNQIIKLENLEKCKRLIQLSVANNRLVRMMGVAKLTLLRVLNLPHNSIGCVEGLKELVHLEWLNLAGNNLKAMEQINSCTALQHLDLSDNNISQIGDLSKLVSLKTLLLHGNIITSLRMAPAYLPRSLAILSLAENEIRDLNEISFLASLTELEQLSIMNNPCVMATPSIPGFDYRPYIVSWCLNLRVLDGYVISQKESLKAEWLYSQGKGRAYRPGQHIQLVQYLATVCPLTSTLGLQTAEDAKLEKILSKQRFHQRQLMNQSQNEELSPLVPVETRASLIPEHSSPVQDCQISQESEPVIQVNSWVGINSNDDQLFAVKNNFPASVHTTRYSRNDLHLEDIQTDEDKLNCSLLSSESTFMPVASGLSPLSPTVELRLQGINLGLEDDGVADESVKGLESQVLDKEEEQPLWAANENSVQMMRSEINTEVNEKAGLLPCPEPTIISAILKDDNHSLTFFPESTEQKQSDIKKPENTQPENKETISQATSEKLPMILTQRSVALGQDKVALQKLNDAATKLQACWRGFYARNYNPQAKDVRYEIRLRRMQEHIVCLTDEIRRLRKERDEERIKKFVQEEAFRFLWNQVRSLQVWQQTVDQRLSSWHFEKVKRRLDLDIDGLQKENCPYVITSGITEQERQHLPEKRYPKGSGFVNKNKMLGTSSKESEELLKSKMLAFEEMRKRLEEQHAQQLSLLIAEQEREQERLQKEIEEQEKMLKEKKAMTAEASELDINNAVELEWRKISDSSLLETMLSQADSLHTSNSNSSGFTNSAMQYSFVSANEAPFYLWGSSTSGLTKLSVTRPFGRAKTRWSQVFSLEIQAKFNKITAVAKGFLTRRLMQTDKLKQLRQTVKDTMEFIRSFQSEAPLKRGIVSAQDASLQERVLAQLRAALYGIHDIFFVMDAAERMSILHHDREVRKEKMLRQMDKMKSPRVALSAATQKSLDRKKYMKAAEMGMPNKKFLVKQNPSETRVLQPNQGQNAPVHRLLSRQGSICRKNPKKAAKCCDNLRRQHSLG
notes: CEP97, human, residues 1-650; Dimer by single-molecule fluorescence intensity; A linker between the two parts is not described; also called CP110-CEP97 fusion; CEP97^CP110 chimera; source: HEK293T, transfected; purified (StrepTactin) for the in vitro assays; in lysate for the co-immunoprecipitation; not shown: GFP, C-terminal, kept; twin-Strep-tag (SII), C-terminal, kept
- stoichiometry N [4]: 2
